Reference: patent US20230212254A1 (published 2023)

Target: T1, FITC-labeled recombinant human PSMA protein (Acro, #PSA-HF244) (human, UniProt Q04609 44-750, FITC label)
T1 construct: Bought reagent
Experiment: flow cytometry, gating of CAR(+) cells for T cell subset analysis (FIG. 79)
Method: Eight days after the start of stimulation, the CAR-T cells constructed in Example 8 were analyzed for T cell subsets using a flow cytometer: they were classified into stem cell-like memory T cells (T memory stem cells, CD45RA⁺CCR7⁺), central memory T cells (CD45RA⁻CCR7⁺), effector memory T cells (CD45RA⁻ CCR7⁻) and effector T cells (CD45RA⁺CCR7⁻) according to the presence or absence of the expression of CD45RA and CCR7. […] In addition, when analyzing PSMA-specific CAR(+) cells, FITC-labeled recombinant human PSMA protein (Acro, #PSA-HF244) was used to stain the CAR.

T1 sequence (Q04609 44-750 limits assumed): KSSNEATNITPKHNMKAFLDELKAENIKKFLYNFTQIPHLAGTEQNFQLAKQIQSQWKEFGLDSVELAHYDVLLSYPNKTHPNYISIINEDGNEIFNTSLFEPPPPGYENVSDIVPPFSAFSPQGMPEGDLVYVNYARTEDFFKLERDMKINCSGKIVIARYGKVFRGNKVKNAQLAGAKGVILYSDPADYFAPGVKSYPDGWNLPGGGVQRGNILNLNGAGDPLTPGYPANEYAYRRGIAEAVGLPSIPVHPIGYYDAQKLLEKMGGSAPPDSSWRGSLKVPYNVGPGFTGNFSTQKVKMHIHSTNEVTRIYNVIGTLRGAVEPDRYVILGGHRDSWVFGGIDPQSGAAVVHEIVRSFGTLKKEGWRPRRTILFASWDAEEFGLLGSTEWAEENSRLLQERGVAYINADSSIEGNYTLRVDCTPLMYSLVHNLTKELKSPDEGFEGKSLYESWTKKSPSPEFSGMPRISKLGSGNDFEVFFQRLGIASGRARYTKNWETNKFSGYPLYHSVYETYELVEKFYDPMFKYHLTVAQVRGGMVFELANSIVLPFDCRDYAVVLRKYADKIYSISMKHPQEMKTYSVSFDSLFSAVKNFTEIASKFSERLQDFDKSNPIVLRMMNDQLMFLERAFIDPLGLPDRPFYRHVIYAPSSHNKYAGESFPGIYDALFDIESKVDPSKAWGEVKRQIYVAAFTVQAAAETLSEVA

B1: PSMA-specific CAR (Pbbz): scFv derived from the PSMA-specific J591 antibody, CD8 hinge-transmembrane domain, 4-1BB co-stimulatory domain, CD3ζ intracellular … (other)
chain: DIVMTQSHKFMSTSVGDRVSIICKASQDVGTAVDWYQQKPGQSPKLLIYWASTRHTGVPDRFTGSGSGTDFTLTITNVQSEDLADYFCQQYNSYPLTFGAGTMLDLKRGGGGSGGGGSGGGGSEVQLQQSGPELKKPGTSVRISCKTSGYTFTEYTIHWVKQSHGKSLEWIGNINPNNGGTTYNQKFEDKATLTVDKSSSTAYMELRSLTSEDSAVYYCAAGWNFDYWGQGTTLTVSSTTTPAPRPPTPAPTIASQPLSLRPEACRPAAGGAVHTRGLDFACDIYIWAPLAGTCGVLLLSLVITLYCKRGRKKLLYIFKQPFMRPVQTTQEEDGCSCRFPEEEEGGCELRVKFSRSADAPAYQQGQNQLYNELNLGRREEYDVLDKRRGRDPEMGGKPRRKNPQEGLYNELQKDKMAEAYSEIGMKGERRRGKGHDGLYQGLSTATKDTYDALHMQALPPR
notes: The Pbbz#F, #C, #S2 and #FCS2 cells are treated as carrying the same CAR
Question: Does B1 bind?
Answer: binds
